Source: doi:10.1101/2021.06.25.449899 (bioRxiv, 2021)

Target: the molecule itself
Experiment: SEC-MALS

B1: Mycobacterium tuberculosis transcription termination factor Rho, wild type (enzyme)
chain: TDTDLITAGESTDGKPSDAAATDPPDLNADEPAGSLATMVLPELRALANRAGVKGTSGMRKNELIAAIEEIRRQANGAPAVDRSAQEHDKGDRPPSSEAPATQGEQTPTEQIDSQSQQVRPERRSATREAGPSGSGERAGTAADDTDNRQGGQQDAKTEERGTDAGGDQGGDQQASGGQQARGDEDGEARQGRRGRRFRDRRRRGERSGDGAEAELREDDVVQPVAGILDVLDNYAFVRTSGYLPGPHDVYVSMNMVRKNGMRRGDAVTGAVRVPKEGEQPNQRQKFNPLVRLDSINGGSVEDAKKRPEFGKLTPLYPNQRLRLETSTERLTTRVIDLIMPIGKGQRALIVSPPKAGKTTILQDIANAITRNNPECHLMVVLVDERPEEVTDMQRSVKGEVIASTFDRPPSDHTSVAELAIERAKRLVEQGKDVVVLLDSITRLGRAYNNASPASGRILSGGVDSTALYPPKRFLGAARNIEEGGSLTIIATAMVETGSTGDTVIFEEFKGTGNAELKLDRKIAERRVFPAVDVNPSGTRKDELLLSPDEFAIVHKLRRVLSGLDSHQAIDLLMSQLRKTKNNYEFLVQVSKTTPGSMDSD
**Q.** For B1, which “stoichiometry N” value is on record?
**A.** 6
